Source: patent US20260174875A1 (Novo Nordisk A/S, priority 2023, published 2026)
Numbered stars: 1 amine (or outer) side, 2 acyl side, 3 side chain; on linkers, the order of the positions; unused ones are H or OH. Square brackets hold non-standard residues; d marks the D form. Side chains are listed from the residue outwards. * marks the point of attachment. C18 diacid = O=C(O)CCCCCCCCCCCCCCCCC(=O)*; γGlu = O=C(O)[C@H](CCC(=O)[*:2])N[*:1]; Chem. 28 = not defined here; Chem. 29 = not defined here; AEEA = NCCOCCOCC(=O)O; Aib = CC(C)(N)C(=O)O

T1: human GIP receptor (human, UniProt P48546 22-466)
T1 sequence (looked up): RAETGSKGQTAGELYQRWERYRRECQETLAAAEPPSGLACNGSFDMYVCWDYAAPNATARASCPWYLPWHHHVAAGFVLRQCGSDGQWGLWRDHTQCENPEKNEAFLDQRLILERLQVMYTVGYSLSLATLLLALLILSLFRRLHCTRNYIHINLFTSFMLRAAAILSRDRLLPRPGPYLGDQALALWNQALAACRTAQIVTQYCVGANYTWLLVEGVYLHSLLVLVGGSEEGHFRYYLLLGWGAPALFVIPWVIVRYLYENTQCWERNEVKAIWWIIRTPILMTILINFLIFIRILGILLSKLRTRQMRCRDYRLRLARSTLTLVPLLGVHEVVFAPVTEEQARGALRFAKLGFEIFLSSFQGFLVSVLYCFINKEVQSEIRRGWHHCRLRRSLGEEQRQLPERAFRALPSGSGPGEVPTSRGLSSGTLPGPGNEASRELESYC

T2: human amylin-3(a) receptor (human, UniProt P30988 25-474; O60896 24-148)
T2 sequence (looked up) 1: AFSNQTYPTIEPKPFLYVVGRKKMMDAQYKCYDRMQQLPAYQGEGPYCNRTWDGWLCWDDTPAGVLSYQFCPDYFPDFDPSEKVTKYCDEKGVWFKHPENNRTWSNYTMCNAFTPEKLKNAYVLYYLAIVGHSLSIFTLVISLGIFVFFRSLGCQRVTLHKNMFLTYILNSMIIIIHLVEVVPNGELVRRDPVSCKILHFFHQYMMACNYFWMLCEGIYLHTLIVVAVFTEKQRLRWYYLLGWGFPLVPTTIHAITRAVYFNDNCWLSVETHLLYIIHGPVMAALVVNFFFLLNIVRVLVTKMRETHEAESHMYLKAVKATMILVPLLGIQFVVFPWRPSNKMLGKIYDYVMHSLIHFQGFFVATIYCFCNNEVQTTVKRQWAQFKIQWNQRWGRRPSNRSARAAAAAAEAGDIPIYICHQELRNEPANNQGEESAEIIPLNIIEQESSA
T2 sequence (looked up) 2: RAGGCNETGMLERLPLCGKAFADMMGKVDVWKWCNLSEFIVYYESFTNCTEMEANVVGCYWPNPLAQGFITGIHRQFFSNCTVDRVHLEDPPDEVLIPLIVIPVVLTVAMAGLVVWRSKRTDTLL

B1: Compound 13 (peptide)
peptide: Y[Aib]EGTFTSDYSILLEEQAAREFIEWLLAGGPSK([AEEA-AEEA-γGlu-C18 diacid])GAPPPSGGGGASELSTAALGRLSAELHRLATLPRTETGSGSP-NH2
B2: Compound 46 (peptide)
peptide: H[Aib]HGTFTSDYSILLEEQAAREFIEWLLAGGPSK(Chem. 28)GAGQAPGQAPGASHLSTAALGRLSAELHRLATLPRTETGSGSP-NH2
modifications: reading uncertain
B3: Compound 36 (peptide)
peptide: H[Aib]HGTFTSDYSILLEEQAAREFIEWLLAGGPSK(Chem. 28)GEASHLSTAQTARLSAELHELATLPRTETGSGSP-NH2
modifications: reading uncertain
B4: Compound 21 (peptide)
peptide: Y[Aib]EGTFTSDYSILLEEQAAREFIEWLLAGGPSK(Chem. 28)GALAQTLAQTLASELSTAALGRLSAELHELATLPRTETGSGSP-NH2
modifications: reading uncertain
B5: Compound 54 (peptide)
peptide: Y[Aib]EGTFTSDYSILLEEQAAREFIEWLLAGGPSSGAGQAPGQAPGASK(Chem. 28)LSTAQTQRLSAELHRLATLPRTETGSGSP-NH2
modifications: reading uncertain
B6: Compound 29 (peptide)
peptide: Y[Aib]EGTFTSDYSILLEEQAAREFIEWLLAGGPSK(Chem. 28)GEASELSTAALGRLSAELHYLATLPRTETGSGSP-NH2
modifications: reading uncertain
B7: Compound 18 (peptide)
peptide: Y[Aib]EGTFTSDYSILLEEQAAREFIEWLLAGGPSK(Chem. 29)GEASELSTAALGRLSAELHRLATLPRTETGSGSP-NH2
modifications: reading uncertain
B8: Compound 27 (peptide)
peptide: Y[Aib]EGTFTSDYSILLEEQAAREFIEWLLAGGPSK(Chem. 28)GEASELSTAQLGRLSAELHRLATLPRTETGSGSP-NH2
modifications: reading uncertain
B9: Compound 22 (peptide)
peptide: H[Aib]HGTFTSDYSILLEEQAAREFIEWLLAGGPSK(Chem. 28)GAPPPSLAQTLAQTLASELSTAALGRLSAELHELATLPRTETGSGSP-NH2
modifications: reading uncertain
B10: Compound 23 (peptide)
peptide: Y[Aib]EGTFTSDYSILLEEQAAREFIEWLLAGGPSK(Chem. 28)GALAQTLGTNEASELSTAALGRLSAELHELATLPRTETGSGSP-NH2
modifications: reading uncertain
B11: Compound 32 (peptide)
peptide: Y[Aib]EGTFTSDYSILLEEQAAREFIEWLLAGGPSK(Chem. 28)GAEASELSTAALGRLSAELHELATLPRTETGSGSP-NH2
modifications: reading uncertain
B12: Compound 66 (peptide)
peptide: H[Aib]HGTFTSDYSILLEEQAAREFIEWLLAGGPSK([AEEA-AEEA-γGlu-C18 diacid])GEASQLSTAALGRLSAELHHLATLPRTETGSGSP-NH2
B13: Compound 25 (peptide)
peptide: H[Aib]HGTFTSDYSILLEEQAAREFIEWLLAGGPSK(Chem. 28)GEASELSTAALGRLSAELHRLATLPRTETGSGSP-NH2
modifications: reading uncertain
B14: Compound 24 (peptide)
peptide: Y[Aib]EGTFTSDYSILLEEQAAREFIEWLLAGGPSK(Chem. 28)GALAQTLFVNQASELSTAALGRLSAELHELATLPRTETGSGSP-NH2
modifications: reading uncertain
B15: Compound 30 (peptide)
peptide: H[Aib]HGTFTSDYSILLEEQAAREFIEWLLAGGPSK(Chem. 28)GAPPPSGGGEASELSTAALGRLSAELHRLATLPRTETGSGSP-NH2
modifications: reading uncertain
B16: Compound 31 (peptide)
peptide: Y[Aib]EGTFTSDYSILLEEQAAREFIEWLLAGGPSSK(Chem. 28)APPPSGGGEASELSTAALGRLSAELHRLATLPRTETGSGSP-NH2
modifications: reading uncertain
B17: Compound 28 (peptide)
peptide: Y[Aib]EGTFTSDYSILLEEQAAREFIEWLLAGGPSK(Chem. 28)GEASELSTAALARLSAELHRLATLPRTETGSGSP-NH2
modifications: reading uncertain
B18: Compound 20 (peptide)
peptide: Y[Aib]EGTFTSDYSILLEEQAAREFIEWLLAGGPSK(Chem. 29)GASELSTAALGRLSAELHRLATLPRTETGSGSP-NH2
modifications: reading uncertain
B19: Compound 19 (peptide)
peptide: Y[Aib]EGTFTSDYSILLEEQAAREFIEWLLAGGPSK(Chem. 28)GEASELSTAALGRLSAELHRLATLPRTETGSGSP-NH2
modifications: reading uncertain

Legend:
Experiment in all cases: cell-based or functional assay
human GIP receptor [1] = target: T1, human GIP receptor
human GLP-1 receptor [2] = target: T3, human GLP-1 receptor (human, UniProt P43220 24-463)
[3] = target: T2, human amylin-3(a) receptor
human GIP receptor [4] = target: T1, human GIP receptor; remark: listed apart in the source
human GLP-1 receptor [5] = target: T3, human GLP-1 receptor; remark: listed apart in the source
[6] = target: T2, human amylin-3(a) receptor; remark: listed apart in the source

Binder | hGIPR Potency, no HSA, EC50 [pM] (human GIP receptor [1]) | hGLP-1R Potency, no HSA, EC50 [pM] (human GLP-1 receptor [2]) | hAMYR3 Potency, no HSA, EC50 [pM] [3] | hGIPR Potency, 1% HSA, EC50 [pM] (human GIP receptor [4]) | hGLP-1R Potency, 1% HSA, EC50 [pM] (human GLP-1 receptor [5]) | hAMYR3 Potency, 1% HSA, EC50 [pM] [6]
B1 | 2.4 pM | 37.9 pM | 2.26 pM |  |  | 
B2 | 5.42 pM | 4.59 pM | 4.41 pM |  |  | 
B3 | 1.96 pM | 3.19 pM | 3.84 pM | 226 pM | 208 pM | 137 pM
B4 | 8.63 pM | 41.2 pM | 12 pM |  |  | 
B5 | 5.56 pM | 28.8 pM | 3.02 pM |  |  | 
B6 | 2.62 pM | 27.1 pM | 3.09 pM |  |  | 
B7 | 7.25 pM | 52.8 pM | 3.93 pM |  |  | 
B8 | 2.11 pM | 26.2 pM | 3.82 pM |  |  | 
B9 | 35.8 pM | 11.3 pM | 10.9 pM |  |  | 
B10 | 1.2 pM | 15.3 pM | 5.17 pM |  |  | 
B11 | 8.09 pM | 27.6 pM | 10.1 pM |  |  | 
B12 | 2.39 pM | 5.25 pM | 2.32 pM |  |  | 
B13 | 4.27 pM | 2.87 pM | 3.22 pM |  |  | 
B14 | 2.34 pM | 51.5 pM | 4.24 pM |  |  | 
B15 | 6.8 pM | 6.37 pM | 2.28 pM |  |  | 
B16 | 4.73 pM | 47.8 pM | 2.69 pM |  |  | 
B17 | 3.5 pM | 96 pM | 2.28 pM |  |  | 
B18 | 4.82 pM | 40.6 pM | 3.65 pM |  |  | 
B19 | 9.44 pM | 57.9 pM | 4.24 pM |  |  | 
